The record followed here is US20040014191A1, “Nitroreductase enzymes” (priority 1999, published 2004).

Read-outs that look alike come from different tables or passages of the source.

By Km is commonly meant the substrate concentration at which the rate is half of its maximum. By kcat is commonly meant the number of substrate molecules converted per active site and unit of time at saturation. One may read the kcat/Km as the second-order rate constant that governs catalysis at low substrate concentration.

The subject of series [1] is Cc1cc2nc3c(=O)[nH]c(=O)nc-3n(C[C@H](O)[C@H](O)[C@H](O)COP(=O)(O)OP(=O)(O)OC[C@H]3O[C@@H](n4cnc5c(N)ncnc54)[C@H](O)[C@@H]3O)c2cc1C. The series is described as follows: purified protein, by the assay type.
Method: Quantitative assays using CB 1954 or SN 23862 as substrate were carried out at 37° C. by HPLC as previously described (2) (3). […] Incubation times varied according to the enzyme activity being studied.
Assays were carried out spectrophotometrically at 37° C. in 10 mM Tris pH 7.5 using cytochrome c as terminal electron acceptor.
A short description of series [2]: Nitroreductase enzyme assay with SN 23862 as substrate (HPLC). Format: biochemical. As to conditions: for SN23862 (activity): Table 2, recombinant B. subtilis enzymes, crude lysates; for SN 23862 acitvity: Table 6.
The nature of series [3]: Nitroreductase enzyme assay with CB 1954 as substrate (HPLC). Format: biochemical. As to conditions: for CB1954 (product formed / activity): Table 2, recombinant B. subtilis enzymes, crude lysates.
Series [4] is classed as biochemical. The following applies: Table 6.
Series [5] is classed as biochemical. As to conditions: Table 6. This is another data set of the same source.
The test system of series [6] is recombinant enzymes (antigens). The series is described as follows: Polyclonal antisera titres by ELISA. The class given is binding. The following applies: rabbit antiserum. On the procedure: Polyclonal antisera were raised against recombinant enzymes by immunising rabbits with […] of protein in 50% PBS:50% Freund's complete adjuvant, total volume 400 μl. Blood was collected by ear bleed after 6-8 weeks and again 10 days after a booster immunisation of protein, and titre assessed by ELISA. 96-well plates were coated with 1 μg ml^−1 of the proteins and blocked with 10% v/v foetal calf serum (FCS), antibodies were diluted in assay buffer (1% FCS) and applied in doubling dilutions across the plate from 1 in 100 to 1 in 51 200 or 1 in 150 to 1 in 76 800. A secondary antibody conjugated with HRP (dilution 1 in 10 000) was used to develop the assay with 3,3′,5,5′-tetramethylbenzidine (TMB) as substrate.
Antisera to E. coli B NfnB and six novel proteins (Haemophilus influenzae and Campylobacter jejuni NfnB homologues, YdgI and YodC of Bacillus subtilis, YwrO of B. amyloliquefaciens and Porphyromonas gingivalis YwrO homologue) have been raised in rabbits by inoculation with 100 μg of protein in PBS+ Freund's complete adjuvant. Titres were assessed by ELISA after 8 weeks, and 10 days after a booster inoculation of a further 100 μg of protein per rabbit. Pre-immune sera were also tested.
96 well plates were coated overnight at 4° C. with the antigens at 1 μg/ml. After washing and blocking antisera were added in doubling dilutions in an appropriate range across the plates. The plates were developed using goat anti-rabbit IgG peroxidase conjugate with TMB as substrate, and read at 450 nm.

[7] abbreviates: other: cofactor NADH, 37° C., 10 mM Tris pH 7.5, pH 7.5.

“YodC (Bacillus subtilis subsp. subtilis str. 168)”: in series [1] (setting [7]), the Km amounted to 0.6 ± 0.1 µM, the kcat was 269 ± 4.9 s⁻¹ and the kcat/Km is 4.48e+08 M⁻¹ s⁻¹. For the same molecule, in series [1] (other: cofactor NADPH, 37.0 °C), the Km was 2.4 ± 0.3 µM, the kcat is 283 ± 7.4 s⁻¹ and the catalytic efficiency (kcat/Km) was 1.18e+08 M⁻¹ s⁻¹.

B1: Bs YwrO: nitroreductase from B. subtilis, SEQ ID NO: 4 (protein, listed as Bacillus subtilis)
chain: MKILVLAVHPHMETSVVNKAWAEELSKHDNITVRDLYKEYPDEAIDVAKEQQLCEEYDRIVFQFPLYWYSSPPLLKKWQDLVLTYGWAFGSEGNALHGKELMLAVSTGSEAEKYQAGGANHYSISELLKPFQATSNLIGMKYLPPYVFYGVNYAAAEDISHSAKRLAEYIQQPFV
As to B1, in series [2], the “activity with SN23862” value is “inactive with either CB 1954 or SN 23862” and the “SN23862 (activity)” value is “inactive”. Further, the “activity with SN23862” value in series [2] (listed as B. subtilis YwrO) is “inactive against SN23862”. In addition, in series [3], the “reduction of CB1954: activity and product formed” value (shortened to “reduction of CB1954”) is “inactive with either CB 1954 or SN 23862”; the “CB1954 (product formed / activity)” value was determined as 4HX. For the same molecule, the “reduction of CB1954” value in series [3] (listed as B. subtilis YwrO) is given as “converts CB1954 to the 4HX derivative alone”.

B2: YdeQ: nitroreductase from B. subtilis, SEQ ID NO: 8 (protein, listed as Bacillus subtilis)
chain: MDHMKTLVLVVHPNIESSRINKKWKEAVLSEPDVTVHDLYEKYRDQPIDVEFEQQQLLAHDRIVFQFPLYWYSSPPLLKQWFDEVFTFGWAHGPGGNKLKGKEWVTAMSIGSPEHSYQAGGYNLFSISELTKPFQASAHLVGMTYLPSFAEYRANTISDQEIAESANRYVKHITNIELNPKVRLQRYLKQLESVDLT
Take B2: in series [2], the “activity with SN23862” value is reported as “no activity with prodrugs” and the “SN23862 (activity)” value is “inactive”. Besides, in series [3], the “reduction of CB1954” value is on record as “no activity with prodrugs”; the “CB1954 (product formed / activity)” value is “inactive”.

B3: Rat DTD: rat DT-diaphorase enzyme (protein, UniProt P05982 2-274, looked up)
NAD(P)H dehydrogenase …: AVRRALIVLAHAERTSFNYAMKEAAVEALKKKGWEVVESDLYAMNFNPLISRNDITGEPKDSENFQYPVESSLAYKEGRLSPDIVAEQKKLEAADLVIFQFPLYWFGVPAILKGWFERVLVAGFAYTYATMYDKGPFQNKKTLLSITTGGSGSMYSLQGVHGDMNVILWPIQSGILRFCGFQVLEPQLVYSIGHTPPDARVQVLEGWKKRLETVWEESPLYFAPSSLFDLNFQAGFLLKKEVQEEQKKNKFGLSVGHHLGKSIPADNQIKARK
For the molecule B3, in series [2] (Table 1), the “SN23862 Km” value is “inactive” and the SN23862 kcat entry is “inactive”. The CB1954 kcat in series [3] (Table 1) turned out to be 0.07 s⁻¹. In addition, in series [3] (Table 1, purified enzymes), the “CB 1954 product” value stood at 4HX.

B4: YrkL: nitroreductase from B. subtilis, SEQ ID NO: 6 (protein, listed as Bacillus subtilis)
chain: MKTLVIVIHPNLETSVVNKTWMNRLKQEKDITVHDLYGEYPNFIIDVEKEQQLLLDHERIVFQFPMYWYSSPALLKQWEDDVLTHGWAYGTGGTKLHGKELLLAISSGAQESDYQAGGEYNITISELIRPFQVTANYIGMRFLPAFTQYGTLHLSKEDVKNSAERLVDYLKAEH
Turning to B4, in series [2], the “activity with SN23862” value is “no activity” and the “SN23862 (activity)” value is “inactive”. In series [3], the “reduction of CB1954” value is recorded as “no activity”; the “CB1954 (product formed / activity)” value is “inactive”.

B5: Synechocystis: nitroreductase from Synechocystis sp PCC 6803, SEQ ID NO: 19 (protein)
chain: MDTFDAIYQRRSVKHFDPDHRLTAEEERKLHEAAIQAPTSFNIQLWRFLIIRDPQLRQTIREKYGNQAQMTDASLLILVAADVNAWDKDPARYWRNAPREVANYLVGAIAFYGGKPQLQRDEAQRSIGMAMQNLMLAAKAMGYDSCPMIGFDLQKVAELVKLPADYAIGPMVAIGKRTEDARAKGGQTPLEELVWENSFA
modifications: Synechocystis PCC6803
For the molecule B5, in series [2], the “activity with SN23862” value is recorded as “show activity with SN23862” and the “SN 23862 acitvity” value was “Weak”. Besides, the Cofactor result in series [4] is on record as “NADPH”. The “reduction of CB1954” value in series [3] is “only the relatively non-toxic 2HX derivative”. The “CB 1954 product” value in series [3] (Table 6, recombinant enzymes) worked out at 2HX. Moreover, the Azo-Reductase entry in series [5] is on record as “No”.

B6: E. coli BNfnB (protein)
chain: MDIISVALKRHSTKAFDASKKLTPEQAEQIKTLLQYSPSSTNSQPWHFIVASTEEGKARVAKSAAGNYVFNERKMLDASHVVVFCAKTAMDDVWLKLVVDQEDADGRFATPEAKAANDKGRKFFADMHRKDLHDDAEWMAKQVYLNVGNFLLGVAALGLDAVPIEGFDAAILDAEFGLKEKGYTSLVVVPVGHHSVEDFNATLPKSRLPQNITLTEV
B6: the Post-boost titre in series [6] (10 days after booster) was 11000. The “Pre-boost titre (50%)” value in series [6] (after 8 weeks) stood at 1300.

B7: H. pylori: nitroreductase from Helicobacter pylori, SEQ ID NO: 29 (protein, listed as Helicobacter pylori)
chain: MKFLDQEKRRQLLNERHSCKMFDSHYEFSSEELEEIAEIARLSPSSYNTQPWHFVMVTNKDLKKQIAAHSYFNEEMIKSASALMVVCSLKPSELLPTGHYMQNLYPESYKVRVIPSFAQMLGVRFNHSMQKLESYILEQCYIAVGQICMGVSLMGLDSCIIGGFDPLKVGEVLEERINKPKIACLIALGKRVAEASQKSRKSKVDAITWL
As for B7, in series [2], the “activity with SN23862” value is reported as “weak activity with SN23862” and the “SN 23862 acitvity” value is recorded as “Weak”. In series [4], the Cofactor result is listed as “NADPH”. For the same molecule, the “CB 1954 product” value in series [3] (Table 6, recombinant enzymes) was 4 > 2HX. Besides, the “reduction of CB1954” value in series [3] (listed as H. pylori NfnB homologue) is on record as “form the 4HX reduction product of CB1954”. Further, the “reduction of CB1954” value in series [3] (listed as Helicobacter pylori enzyme) is “mixture of the 2 and 4HX”. In series [5], the Azo-Reductase result is listed as “No”.
